According to patent US20220168434A1, “APPLICATION OF TRANSTHYRETIN IN ENTERING EYE AND PREPARING DROP” (YIZHOU (SHANGHAI) BIOLOGICAL MEDICINE CO, LTD., priority 2019, published 2022):

Key:
[1] = Protein content in vitreous body during two weeks of eye dropping (ELISA, anti-His tag antibody); assay type: in vivo, SD rats (Rattus norregicus); settings: SD rats; protein not fused with TTR
Description: (§1) The purified TTR protein (at a concentration of 4 μmol/L) prepared in Example 1 after removal of endotoxin and bacteria was subject to treating healthy SD rats (Rattus norregicus) (6 weeks old) and New Zealand big-eared rabbits (Oryctolagus cuniculus) (2 months old, about 2.5 kg) by means of eye dropping, the left eye was the sample eye dropped with the protein, and the right eye was the blank control eye dropped with saline. The protein was administered 1-3 times per day at a dosage of 0.4-0.8 nmol. Two weeks later, the eyeball was removed and separated to obtain the vitreous body sample. It was preliminarily verified by western-blot method (FIG. 7A) that TTR can enter the vitreous cavity from the ocular surface.
(§2) The purified TTR-GFP protein (at a concentration of 4 μmol/L) prepared in Example 2 after removal of endotoxin and bacteria was subject to treating healthy SD rats (Rattus norregicus) (6 weeks old) and New Zealand big-eared rabbits (Oryctolagus cuniculus) (2 months old, about 2.5 kg) by means of eye dropping, the left eye was the sample eye dropped with the protein, and the right eye was the blank control eye dropped with saline. The protein was administered 1-3 times per day at a dosage of 0.4-0.8 nmol. […] The content of TTR-GFP in the vitreous body sample was determined by ELISA with the anti-His tag antibody as the primary antibody (Table 10 and 11). […]

[2] = as above; assay type: in vivo, New Zealand big-eared rabbits (Oryctolagus cuniculus); settings: New Zealand big-ear rabbits; protein not fused with TTR
Description: as §1, §2

Lysozyme: Lysozyme protein (Genbank Accession No.: AAL69327.1) not fused with TTR
entering the vitreous body after eye dropping (in words) [1]: did not enter | entering the vitreous body after eye dropping (in words) [2]: did not enter
